This is an account of results in patent US20190071490A1 (BETH ISRAEL DEACONESS MEDICAL CENTER, published 2019).

Ends that are not written are not given here.

Assay [1] has as its target antibody G1 Fab fragment. The assay can be described thus: Biacore competition: G1 Fab (50 nM) pre-incubated with competing peptide, flowed over human α-CGRP on SA chip. From the text:
(§1) Y axis represents percentage of binding blocked by the presence of the competing peptide compared with the binding in the absence of the competing peptide.
(§2) All these peptides are amidated at the C-terminus.
In general terms: Surface plasmon resonance follows binding to a sensor surface in real time, without labels.

The target in assay [2] is T1, human α-CGRP 1-37 (WT) (human, C-terminal amide; N-terminal biotin when captured on the SA chip; 125I-labelled in the radioligand assay).
T1 construct: also called α-human
T1 peptide: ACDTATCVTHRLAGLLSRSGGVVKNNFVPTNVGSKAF
Description: Biacore, 37°C, Fab over CGRP on SA chip. The method in brief:
(§3)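 Fab analyte flowed over N-biotinylated CGRP captured at low density on a streptavidin chip in HBS-EP (pH 7.4), 1-min injections at 100 μL/min, at least 10 min dissociation.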

Assay [3] addresses T2, rat α-CGRP (1-37) (rat, C-terminal amide; N-terminal biotin when captured on the SA chip).
T2 construct: also called rat α (1-37); α-rat
T2 peptide: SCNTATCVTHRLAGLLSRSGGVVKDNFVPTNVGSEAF
The assay can be described thus: Biacore, 37°C, Fab over CGRP on SA chip. The method in brief:
as §3

Assay [4] has as its target antibody G1 Fab fragment. The assay can be described thus: Biacore competition: G1 Fab (50 nM) pre-incubated 1 h with 10 µM competing peptide, then flowed over N-biotinylated human α-CGRP on SA chip; percent of binding to chip-bound human α-CGRP blocked.
Excerpt: as §1, §2
Target sequence in this assay (VH, as listed by the source, chain 1 of 2): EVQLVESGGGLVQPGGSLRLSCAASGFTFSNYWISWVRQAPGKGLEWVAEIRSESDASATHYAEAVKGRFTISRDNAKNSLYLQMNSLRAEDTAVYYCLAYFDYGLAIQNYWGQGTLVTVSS
Target sequence in this assay (VL, as listed by the source, chain 2 of 2): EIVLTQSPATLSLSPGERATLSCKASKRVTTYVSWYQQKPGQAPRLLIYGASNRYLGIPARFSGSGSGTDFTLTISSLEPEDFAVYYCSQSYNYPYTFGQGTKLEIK

B1: Human adrenomedullin (1-52) (peptide)
peptide: YRQSMNNFQGLRSFGCRFGTCTVQKLAHQIYQFTDKDKDNVAPRSKISPQGY-NH2
modifications: ends and bridges not checked
As for B1, the binding result in assay [1] was “no binding (tested: 10 µM)”.

KCNTATCATQRLANFLVHSSNNFGAILSSTNVGSNTY-NH2 (ends and bridges not checked) [Human amylin (1-37)]: the binding result in assay [1] is reported as “no binding (tested: 10 µM)”.

As to ACDTATCVTHRLA-OH (ends and bridges not checked) [human α-CGRP 1-13-COOH], the binding result in assay [1] was “no binding (tested: 10 µM)”.

B2: G1 variant M72 Fab (Fab, V domains shown)
VH: EVQLVESGGGLVQPGGSLRLSCAASGFTFSNYWISWVRQAPGKGLEWVAEIRSKSDASATHYAEAVKGRFTISRDNAKNSLYLQMNSLRAEDTAVYYCTVYFDYGLAIQNYWGQGTLVTVSS
VL: EIVLTQSPATLSLSPGERATLSCKASKNVGTYVSWYQQKPGQAPRLLIYGASNRYSGIPARFSGSGSGTDFTLTISSLEPEDFAVYYCSQSYNYPYTFGQGTKLEIK
notes: Fab; constant domains as m1
For the molecule B2, the results for the Kd in assay [2] and in assay [3] were 2.5 nM and 219 nM, respectively. In addition, the values for the koff in assay [2] and in assay [3] were 0.0004 s⁻¹ and 0.00395 s⁻¹, respectively.

B3: G1 variant M78 Fab (Fab, V domains shown)
VH: EVQLVESGGGLVQPGGSLRLSCAASGFTFSNYWISWVRQAPGKGLEWVAEIRSKSDNTATHYAEAVKGRFTISRDNAKNSLYLQMNSLRAEDTAVYYCTVYFDYGLAIQNYWGQGTLVTVSS
VL: EIVLTQSPATLSLSPGERATLSCKASKNVSTYVSWYQQKPGQAPRLLIYAASNRYTGIPARFSGSGSGTDFTLTISSLEPEDFAVYYCSQSYNYPYTFGQGTKLEIK
notes: Fab; constant domains as m1
Turning to B3, the Kd (commonly the free concentration of one partner at which half of the binding sites on the other are occupied at equilibrium, for simple one-to-one binding) was 8.19 nM in assay [2] and 9280 nM in assay [3]. The koff (commonly the first-order rate constant of dissociation) in assay [2] amounted to 0.00131 s⁻¹; in assay [3], 0.167 s⁻¹.

B4: G1 variant M77 Fab (Fab, V domains shown)
VH: EVQLVESGGGLVQPGGSLRLSCAASGFTFSNYWISWVRQAPGKGLEWVAEIRSKSDDSATHYAEAVKGRFTISRDNAKNSLYLQMNSLRAEDTAVYYCTVYFDYGLAIQNYWGQGTLVTVSS
VL: EIVLTQSPATLSLSPGERATLSCKASKNVSTYVSWYQQKPGQAPRLLIYAASNRYTGIPARFSGSGSGTDFTLTISSLEPEDFAVYYCSQSYNYPYTFGQGTKLEIK
notes: Fab; constant domains as m1
With B4, the dissociation constant Kd in assay [2] amounted to 2.98 nM; in assay [3] it was 794 nM. In addition, the koff was 0.000477 s⁻¹ in assay [2] and 0.0143 s⁻¹ in assay [3].

B5: G1 variant M83 Fab (Fab, V domains shown)
VH: EVQLVESGGGLVQPGGSLRLSCAASGFTFSNYWISWVRQAPGKGLEWVAEIRSKSDNMATFYAEAVKGRFTISRDNAKNSLYLQMNSLRAEDTAVYYCTVYFDYGLAIQNYWGQGTLVTVSS
VL: EIVLTQSPATLSLSPGERATLSCKASKNVVTYVSWYQQKPGQAPRLLIYGHSNRYTGIPARFSGSGSGTDFTLTISSLEPEDFAVYYCSQSYNYPYTFGQGTKLEIK
notes: Fab; constant domains as m1
For the molecule B5, in assay [2], the Kd stood at 5.83 nM and the koff was 0.000933 s⁻¹. The binding result in assay [3] is reported as “no binding”.

B6: G1 variant M80 Fab (Fab, V domains shown)
VH: EVQLVESGGGLVQPGGSLRLSCAASGFTFSNYWISWVRQAPGKGLEWVAEIRSKSDNVATHYAEAVKGRFTISRDNAKNSLYLQMNSLRAEDTAVYYCTVYFDYGLAIQNYWGQGTLVTVSS
VL: EIVLTQSPATLSLSPGERATLSCKASKNVSTYVSWYQQKPGQAPRLLIYGASNRYIGIPARFSGSGSGTDFTLTISSLEPEDFAVYYCSQSYNYPYTFGQGTKLEIK
notes: Fab; constant domains as m1; printed L561 read as L56I
In assay [2], B6 displayed a Kd of 13.1 nM and a koff of 0.00209 s⁻¹. For the same molecule, in assay [3], the equilibrium dissociation constant (Kd) was 5520 nM and the koff was 0.0993 s⁻¹.

B7: G1 variant M79 Fab (Fab, V domains shown)
VH: EVQLVESGGGLVQPGGSLRLSCAASGFTFSNYWISWVRQAPGKGLEWVAEIRSKSDPSATHYAEAVKGRFTISRDNAKNSLYLQMNSLRAEDTAVYYCTVYFDYGLAIQNYWGQGTLVTVSS
VL: EIVLTQSPATLSLSPGERATLSCKASKNVSTYVSWYQQKPGQAPRLLIYAASNRYTGIPARFSGSGSGTDFTLTISSLEPEDFAVYYCSQSYNYPYTFGQGTKLEIK
notes: Fab; constant domains as m1
Regarding B7, in assay [2], the Kd amounted to 8.06 nM and the koff came to 0.00129 s⁻¹. In assay [3], this molecule showed a Kd of 10600 nM and an off-rate (koff) of 0.19 s⁻¹.

B8: G1 variant M75 Fab (Fab, V domains shown)
VH: EVQLVESGGGLVQPGGSLRLSCAASGFTFSNYWISWVRQAPGKGLEWVAEIRSKSDVSATHYAEAVKGRFTISRDNAKNSLYLQMNSLRAEDTAVYYCTVYFDYGLAIQNYWGQGTLVTVSS
VL: EIVLTQSPATLSLSPGERATLSCKASKNVGTYVSWYQQKPGQAPRLLIYGASNRYSGIPARFSGSGSGTDFTLTISSLEPEDFAVYYCSQSYNYPYTFGQGTKLEIK
notes: Fab; constant domains as m1
Turning to B8, the figures for the equilibrium dissociation constant (Kd) in assay [2] and in assay [3] were 7.25 nM and 1040 nM, respectively. For the same molecule, the koff in assay [2] turned out to be 0.00116 s⁻¹; in assay [3] it was 0.0187 s⁻¹.

B9: G1 variant M81 Fab (Fab, V domains shown)
VH: EVQLVESGGGLVQPGGSLRLSCAASGFTFSNYWISWVRQAPGKGLEWVAEIRSKSDNEATHYAEAVKGRFTISRDNAKNSLYLQMNSLRAEDTAVYYCTVYFDYGLAIQNYWGQGTLVTVSS
VL: EIVLTQSPATLSLSPGERATLSCKASKNVSTYVSWYQQKPGQAPRLLIYGASNRYSGIPARFSGSGSGTDFTLTISSLEPEDFAVYYCSQSYNYPYTFGQGTKLEIK
notes: Fab; constant domains as m1
In assay [2], B9 registered a Kd of 3.06 nM and a koff of 0.00049 s⁻¹. In assay [3], this molecule gave a Kd of 238 nM and an off-rate (koff) of 0.00429 s⁻¹.

B10: G1 variant M84 Fab (Fab, V domains shown)
VH: EVQLVESGGGLVQPGGSLRLSCAASGFTFSNYWISWVRQAPGKGLEWVAEIRSNSDNSATHYAEAVKGRFTISRDNAKNSLYLQMNSLRAEDTAVYYCTVYFDYGLAIQNYWGQGTLVTVSS
VL: EIVLTQSPATLSLSPGERATLSCKASKNVVTYVSWYQQKPGQAPRLLIYGHSNRYTGIPARFSGSGSGTDFTLTISSLEPEDFAVYYCSQSYNYPYTFGQGTKLEIK
notes: Fab; constant domains as m1
In the case of B10, in assay [2], the Kd came out at 6.75 nM and the koff is 0.00108 s⁻¹. Moreover, in assay [3], binding was put at a Kd of 978 nM and the koff came out at 0.0176 s⁻¹.

B11: G1 variant M74 Fab (Fab, V domains shown)
VH: EVQLVESGGGLVQPGGSLRLSCAASGFTFSNYWISWVRQAPGKGLEWVAEIRSKSDSSATHYAEAVKGRFTISRDNAKNSLYLQMNSLRAEDTAVYYCTVYFDYGLAIQNYWGQGTLVTVSS
VL: EIVLTQSPATLSLSPGERATLSCKASKNVGTYVSWYQQKPGQAPRLLIYGASNRYSGIPARFSGSGSGTDFTLTISSLEPEDFAVYYCSQSYNYPYTFGQGTKLEIK
notes: Fab; constant domains as m1
Consider B11, for which, in assay [2], the affinity, expressed as Kd, was 3.73 nM and the off-rate constant (koff) turned out to be 0.000597 s⁻¹. Besides, in assay [3], binding was characterised by a dissociation constant (Kd) of 335 nM and the koff turned out to be 0.00603 s⁻¹.

B12: G1 variant M76 Fab (Fab, V domains shown)
VH: EVQLVESGGGLVQPGGSLRLSCAASGFTFSNYWISWVRQAPGKGLEWVAEIRSESDGSATHYAEAVKGRFTISRDNAKNSLYLQMNSLRAEDTAVYYCTVYFDYGLAIQNYWGQGTLVTVSS
VL: EIVLTQSPATLSLSPGERATLSCKASKNVSTYVSWYQQKPGQAPRLLIYAASNRYTGIPARFSGSGSGTDFTLTISSLEPEDFAVYYCSQSYNYPYTFGQGTKLEIK
notes: Fab; constant domains as m1
In assay [2], B12 came in with a Kd of 2.28 nM and a koff of 0.000364 s⁻¹. Moreover, in assay [3], binding was characterised by a dissociation constant (Kd) of 64.4 nM and the koff came to 0.00116 s⁻¹.

B13: G1 variant M82 Fab (Fab, V domains shown)
VH: EVQLVESGGGLVQPGGSLRLSCAASGFTFSNYWISWVRQAPGKGLEWVAEIRSESDNSATHYAEAVKGRFTISRDNAKNSLYLQMNSLRAEDTAVYYCTVYFDYGLAIQNYWGQGTLVTVSS
VL: EIVLTQSPATLSLSPGERATLSCKASKNVVTYVSWYQQKPGQAPRLLIYGHSNRYTGIPARFSGSGSGTDFTLTISSLEPEDFAVYYCSQSYNYPYTFGQGTKLEIK
notes: Fab; constant domains as m1
In the case of B13, the figures for the Kd in assay [2] and in assay [3] were 5.48 nM and 388 nM, respectively. Also, the koff in assay [2] stood at 0.000877 s⁻¹; in assay [3], 0.00699 s⁻¹.

B14: G1 variant M73 Fab (Fab, V domains shown)
VH: EVQLVESGGGLVQPGGSLRLSCAASGFTFSNYWISWVRQAPGKGLEWVAEIRSKSDNYATHYADAVKGRFTISRDNAKNSLYLQMNSLRAEDTAVYYCTVYFDYGLAIQNYWGQGTLVTVSS
VL: EIVLTQSPATLSLSPGERATLSCKASKNVGTYVSWYQQKPGQAPRLLIYGASNRYSGIPARFSGSGSGTDFTLTISSLEPEDFAVYYCSQSYNYPYTFGQGTKLEIK
notes: Fab; constant domains as m1
On to B14, for which, in assay [2], the Kd worked out at 1.59 nM and the koff was determined as 0.000255 s⁻¹. For the same molecule, in assay [3], the Kd was 167 nM and the koff was 0.003 s⁻¹.

For ACDTATCVTHRLAGLLSRS-OH (ends and bridges not checked) [human α-CGRP 1-19-COOH], the binding result in assay [1] is on record as “no binding (tested: 10 µM)”.

In the case of CGNLSTCMLGTYTQDFNKFHTFPQTAIGVGAP-NH2 (ends and bridges not checked) [Human calcitonin (1-32)], the binding result in assay [1] is “no binding (tested: 10 µM)”.

B15: human α-CGRP 19-37-COOH (peptide)
peptide: SGGVVKNNFVPTNVGSKAF-OH
notes: also called 19-37 (not amidated at the C-terminus)
Take B15: in assay [4], the “% Binding Blocked” value worked out at 83.3%.

As to SGGVVKNNFVPTNVGSKAA-NH2 (the entry already carries F37A) [human α-CGRP F37A (19-37)], the “% Binding Blocked” value in assay [4] is 91.7%.

B16: human α-CGRP 19-36 (peptide)
peptide: SGGVVKNNFVPTNVGSKA-OH
notes: also called 19-36-COOH; peptide fragment 19-36
Regarding B16, in assay [1], the binding result was “no binding (tested: 10 µM)”. Further, in assay [4], the “% Binding Blocked” value came out at 0.6%.
